In paper PMC6624373:

B1: lamin A (human, mature form, without tags, wild type) [human] / itself (parent)
chain: METPSQRRATRSGAQASSTPLSPTRITRLQEKEDLQELNDRLAVYIDRVRSLETENAGLRLRITESEEVVSREVSGIKAAYEAELGDARKTLDSVAKERARLQLELSKVREEFKELKARNTKKEGDLIAAQARLKDLEALLNSKEAALSTALSEKRTLEGELHDLRGQVAKLEAALGEAKKQLQDEMLRRVDAENRLQTMKEELDFQKNIYSEELRETKRRHETRLVEIDNGKQREFESRLADALQELRAQHEDQVEQYKKELEKTYSAKLDNARQSAERNSNLVGAAHEELQQSRIRIDSLSAQLSQLQKQLAAKEAKLRDLEDSLARERDTSRRLLAEKEREMAEMRARMQQQLDEYQELLDIKLALDMEIHAYRKLLEGEEERLRLSPSPTSQRSRGRASSHSSQTQGGGSVTKKRKLESTESRSSFSQHARTSGRVAVEEVDEEGKFVRLRNKSNEDQSMGNWQIKRQNGDDPLLTYRFPPKFTLKAGQVVTIWAAGAGATHSPPTDLVWKAQNTWGCGNSLRTALINSTGEEVAMRKLVRSVTVVEDDEDEDGDDLLHHHHGSHCSSSGDPAEYNLRSRTVLCGTCGQPADKASASGSGAQVGGPISSGSSASSVTVTRSYRSVGGSGGGSFGDNLVTRSY

Variants of: B1
Test: rotary metal shadowing EM
Conditions: with itself; n = 1000 per mutant; parent: 22; read off a plot

screen value | Variant
13% | chain 1 R7E R8E

Same assay, conditions: with itself; n = 1000 per mutant; parent: 35; read off a plot

screen value | Variant
30% | chain 1 R7E R8E

Same assay, conditions: with itself; n = 1000 per mutant; parent: 43; read off a plot

screen value | Variant
57% | chain 1 R7E R8E

Variants of: B1
Test: in vitro assembly/solubility assay (centrifugation, SDS-PAGE band quantification)
Conditions: with itself; oligomerisation buffer; n = 3 independent replicas; parent: 1; read off a plot

ratio to parent | Variant
3.7 | chain 1 R7E R8E
